Measured values: patent publication US20100137221A1, “PEPTIDES THAT INTERACT WITH TOPOISOMERASE I AND METHODS THEREOF” (UNIVERSITY UTAH RESEARCH FOUNDATION, priority 2007, published 2010)

T1: human topoisomerase I (human, UniProt P11387 1-765, limits assumed)
T1 construct: also called top1; top 1
T1 sequence (looked up): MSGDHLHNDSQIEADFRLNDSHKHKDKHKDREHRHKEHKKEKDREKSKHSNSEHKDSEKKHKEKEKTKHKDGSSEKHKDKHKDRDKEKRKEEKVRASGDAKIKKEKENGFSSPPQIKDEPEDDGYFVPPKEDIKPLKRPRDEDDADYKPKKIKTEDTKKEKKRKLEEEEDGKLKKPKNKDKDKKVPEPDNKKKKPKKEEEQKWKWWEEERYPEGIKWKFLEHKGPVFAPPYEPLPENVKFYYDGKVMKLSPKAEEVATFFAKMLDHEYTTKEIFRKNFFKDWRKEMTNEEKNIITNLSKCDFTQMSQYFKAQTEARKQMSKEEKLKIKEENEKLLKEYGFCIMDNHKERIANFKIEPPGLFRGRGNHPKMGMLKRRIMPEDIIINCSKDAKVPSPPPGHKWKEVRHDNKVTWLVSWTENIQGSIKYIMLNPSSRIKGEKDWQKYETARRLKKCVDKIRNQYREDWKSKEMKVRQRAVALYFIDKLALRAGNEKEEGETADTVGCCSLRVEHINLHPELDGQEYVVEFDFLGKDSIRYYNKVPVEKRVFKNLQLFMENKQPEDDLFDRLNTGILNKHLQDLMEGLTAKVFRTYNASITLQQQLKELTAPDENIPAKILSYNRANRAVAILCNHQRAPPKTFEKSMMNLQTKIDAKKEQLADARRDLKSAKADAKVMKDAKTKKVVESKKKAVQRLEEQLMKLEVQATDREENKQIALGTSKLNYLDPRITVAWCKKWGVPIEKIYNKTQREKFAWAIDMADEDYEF


Key:
human topoisomerase I [1] = biological target: T1, human topoisomerase I; assay: SPR (BIAcore), 100 kDa top1 applied at 1, 2.5, 5, 10 and 20 nM to the CPP4 flow cell, global fit [right panel]
Description: Top 1 was applied to flow cells in 1, 2.5, 5, 10 and 20 nM concentrations. The overlaying curves represent the actual data for a given concentration of top 1 and the “fit” curves. Data were fit using the BIAeval 3000 global fitting software.

human topoisomerase I [2] = biological target: T1, human topoisomerase I; assay: fluorescence polarization, human placental 91 kDa top1 titrated into 500 nM fluorescein-labeled T1BP1; the concentration is that of top1
human topoisomerase I [3] = biological target: T1, human topoisomerase I; assay: phage display biopanning against top1-DNA-9AC, analytical titering against top1
Description: Phage display: Phage display was performed as described by Smith (Parmley 1989). Briefly, top1 was first biotinylated with a biotin derivative containing a spacer engineered to reduced steric interference (Pierce EZ-Link Biotin-PEO-Amine). The reaction was performed at a 5:1 molar ratio of biotin:top1 in 10 mM HEPES (pH 8.2) buffered 500 mM NaCl. The unreacted biotin was removed by gel filtration in a Biospin 30 column (BioRad) and biotinylated top1 was assayed for activity using a pull down method with streptavidin coated beads. The biotinylated top1 maintained catalytic activity. For phage display, 20 μg biotinylated top1 was reacted with a mixture of pBR322 and 9AC and 20 μg was applied to a 30 mm plastic petri dish coated with 10 μg of neutravidin (Pierce). The dish was then blocked with 3.0% bovine serum albumin, and 10 μl of a 10⁹/μl titer phage library in 100 μl TBS-0.05% Tween was added. Phage were allowed to associate with gentle rocking for 2 hours at 4° C., and then washed repeatedly over 2 hours at 4° C. with buffered saline containing 0.1% Tween. […]
Analytical titering: Ten μl of amplified phage clones (approximately 10¹² cfu) were incubated in 50 nM top1 for one hour at 4° C. on a rocker. […] Competent E. coli were added directly to the washed plates and the output assessed by counting a 10⁻⁶ dilution of the culture on tetracycline plates (FIG. 1). […]

Binder | binding result (human topoisomerase I [3]) | other results
DRVPLVHVIFNSFGY (also called CPP4) [T1BP3] |  | binding result (human topoisomerase I [1]): binds
SSQVVGVPQLMQSSP (also called CPP2) [T1BP1] |  | EC50 (read off the curve) (human topoisomerase I [2]): ~100 nM
RNQGPVKMVFPIAPS (also called CPP5) [T1BP4] | binds | 
EGQFTFPRGASE (12-mer, truncated due to a stop codon; also called CPP6; EGQFTFPRGASE) [T1BP5] | binds | 
